From US20210115124A1 (Genentech, published 2021) come the findings set out here.

Substitutions are numbered along the chain they refer to. In names and notes the source's numbering stands.

Experiment [1] has as its target T1, human VEGF (hVEGF) (human, UniProt P15692 181-395).
T1 construct: also called VEGF-A
T1 sequence: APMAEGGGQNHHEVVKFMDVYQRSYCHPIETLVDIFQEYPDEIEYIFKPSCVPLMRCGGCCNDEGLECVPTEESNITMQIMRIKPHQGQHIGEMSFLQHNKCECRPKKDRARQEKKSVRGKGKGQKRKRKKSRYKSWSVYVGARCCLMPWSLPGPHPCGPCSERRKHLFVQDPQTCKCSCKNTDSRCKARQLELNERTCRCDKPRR
Put plainly: SPR.

Experiment [2] has as its target T1, human VEGF (hVEGF). Put plainly: SPR. The source holds these as a separate data set.
The target in experiment [3] is T2, VEGF (as used in the HUVEC migration assay) (Homo sapiens (Human), UniProt P15692 181-395).
T2 sequence: T1 sequence
As to the kind of experiment: cell-based or functional assay.

The next experiment concerns the target human VEGF165 (human, UniProt P15692-4 27-191). As to the kind of experiment: cell-based or functional assay.
In experiment [4] the target is T1, human VEGF (hVEGF). As to the kind of experiment: SPR. This is another data set of the same source.
The target in experiment [5] is T1, human VEGF (hVEGF). As to the kind of experiment: SPR single-cycle.
Experiment [6] addresses T1, human VEGF (hVEGF). Put plainly: SPR multiple-cycle.
Experiment [7] addresses T2, VEGF (as used in the HUVEC migration …). As to the kind of experiment: cell-based or functional assay. The source holds these as a separate data set.
The target in experiment [8] is T1, human VEGF (hVEGF). As to the kind of experiment: SPR. This is another data set of the same source.
Experiment [9] deals with T1, human VEGF (hVEGF). As to the kind of experiment: SPR (FIG. 10D).

B1: G6.31 AAEE (LC-N94A.LC-F83A.HC-A40E.HC-T57E) (Fab, V domains shown)
VH: EVQLVESGGGLVQPGGSLRLSCAASGFTISDYWIHWVRQEPGKGLEWVAGITPAGGYEYYADSVKGRFTISADTSKNTAYLQMNSLRAEDTAVYYCARFVFFLPYAMDYWGQGTLVTVSS
VL: DIQMTQSPSSLSASVGDRVTITCRASQDVSTAVAWYQQKPGKAPKLLIYSASFLYSGVPSRFSGSGSGTDFTLTISSLQPEDAATYYCQQGYGAPFTFGQGTKVEIK
notes: Fab; also called HC-A40E, HC-T57E, LC-F83A, LC-N94A
Consider B1, for which, in the experiment with human VEGF (hVEGF) [1], the Kd worked out at 0.58 nM, the koff stood at 0.000741 s⁻¹ and the on-rate (kon) stood at 1.27e+06 M⁻¹ s⁻¹. In the experiment with human VEGF (hVEGF) [2], this molecule registered a Kd of 0.584 nM, a koff of 0.000741 s⁻¹ and a kon of 1.27e+06 M⁻¹ s⁻¹. Also, the “IC50 relative to G6.31, VEGF-induced HUVEC migration” value in experiment [3] is 0.9 fold.

B2: HA100K-G6.31 AARR (other)
VH: B1 VH with E40A, E58T, Y59R, N84R
VL: B1 VL
modifications: free hinge cysteine of the Fab-C heavy chain linked through maleimide to linear 100 kDa hyaluronic acid
In the case of B2, the “fold increase in potency against the unconjugated parent Fab, pKDR assay” value in the experiment with human VEGF165 was around 7 fold.

B3: G6.31 LC-N94A.LC-F83A (Fab, V domains shown)
VH: B1 VH with E40A, E58T
VL: B1 VL
notes: Fab; also called LC-F83A, LC-N94A; LCcombo5
On to B3, for which, in the experiment with human VEGF (hVEGF) [1], binding was characterised by a dissociation constant (Kd) of 1.71 nM, the koff was found to be 0.00111 s⁻¹ and the kon was determined as 648000 M⁻¹ s⁻¹. Also, in the experiment with human VEGF (hVEGF) [4], the equilibrium dissociation constant (Kd) came out at 1.43 nM, the koff turned out to be 0.000766 s⁻¹ and the kon came out at 537000 M⁻¹ s⁻¹. Moreover, in the experiment with human VEGF (hVEGF) [2], the Kd is 1.71 nM, the off-rate constant (koff) stood at 0.00111 s⁻¹ and the kon amounted to 648000 M⁻¹ s⁻¹. The “IC50 relative to G6.31, VEGF-induced HUVEC migration” value in [3] was 5.1 fold.

B4: G6.31 LC-N94A (Fab, V domains shown)
VH: B1 VH with E40A, E58T
VL: B1 VL with A83F
notes: Fab
As to B4, in the experiment with human VEGF (hVEGF) [1], the Kd was 1.06 nM, the off-rate constant (koff) is 0.00169 s⁻¹ and the kon was 1.56e+06 M⁻¹ s⁻¹. Further, in the experiment with human VEGF (hVEGF) [5], the “Fold difference (relative to G6.31)” value worked out at 0.4 fold, binding was characterised by a dissociation constant (Kd) of 3.93 nM, the koff turned out to be 0.00131 s⁻¹ and the on-rate (kon) is 334000 M⁻¹ s⁻¹. Also, in the experiment with human VEGF (hVEGF) [6], binding was put at a Kd of 1.06 nM, the koff was 0.00169 s⁻¹ and the kon amounted to 1.59e+06 M⁻¹ s⁻¹. Further, in experiment [7], the “IC50 (read off the curve), VEGF-induced HUVEC migration” value was around 7 nM. In addition, in the experiment with human VEGF (hVEGF) [8], the “Fold improved (relative to WT)” value came to 0.5 fold, the Kd is 1.06 nM, the off-rate (koff) came out at 0.00169 s⁻¹ and the association rate constant (kon) was determined as 1.59e+06 M⁻¹ s⁻¹. Besides, in [3], the “IC50 relative to G6.31, VEGF-induced HUVEC migration” value came out at 5.2 fold.

B5: G6.31 LC-F83V (Fab, V domains shown)
VH: B1 VH with E40A, E58T
VL: B1 VL with A83V, A94N
notes: Fab
As for B5, in the experiment with human VEGF (hVEGF) [9], the “fold increase in affinity” value stood at 3 fold.
